Molecular target: T1, recombinant SARS-CoV-2 S1 protein expressed from insect (Sf9) cells (S1-His, SinoBiological, Cat. No. … (SARS-CoV-2, UniProt P0DTC2 16-685))
T1 construct: also called S1 protein from insect (Sf9) cells
Assay: ELISA, coated S1 from Sf9 cells, HRP-conjugated lectin 10 ug/mL

B1: Maclura pomifera lectin (MPA; Cat. No: H-3901-1) (other)
chain 1: GVTFDDGAYTGIREINFEYNSETAIGGLRVTYDLNGMPFVAEDHKSFITGFKPVKISLEFPSEYIVEVSGYVGKVEGYTVIRSLTFKTNKQTYGPYGVTNGTPFSLPIENGLIVGFKGSIGYWLDYFSIYLSL
chain 2: GRNGKSQSIIVGPWGDRVTN
- mean fold increase of OD450: 7.51 fold

From patent US20210085781A1 (KORANEX CAPITAL, published 2021)
